# Laboratory results from the supplement of paper PMC9170038.
# System: MS2 coat protein
# Assay: apparent KD of MS2 coat protein; designed switch direction (-1 OFF switch, 1 ON switch): -1; higher = weaker reporter binding
# Procedure, shortened: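 Stalled E. coli RNA polymerase transcribed designed RNA switches on Illumina chips, which were then titrated with SNAP-549-labelled MS2 coat protein, doubling from 0.7 or 1.5 nM to 3 µM. Steps lasted from 0.8–1.5 h at the lowest concentration to 10–20 min at the highest. The apparent KD is each design's median over clusters of curve-fitted normalised fluorescence.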
# [1] = input ligand: microRNA oligo, concentration not stated
# [2] = Eterna round: R95, input ligand: FMN 200 uM
# [3] = Eterna round: R95, input ligand: microRNA oligo, concentration not stated
# [4] = Eterna round: R95, input ligand: none
Sequence,apparent KD of MS2 coat protein (input ligand: FMN 200 uM),apparent KD of MS2 coat protein [1],apparent KD of MS2 coat protein (input ligand: none),apparent KD of MS2 coat protein [2],apparent KD of MS2 coat protein [3],apparent KD of MS2 coat protein [4]
"AAAAAAUUGAGAGGAUAUGGUGCCGAAACGGUGCUAGAAGGUUUUAUAAAAAAACAUGAGGAUCACCCAUGUUCAUGUAAAAAA [AK ExNG1-1] (Eterna round: R96, puzzle: Exclusion NG 1)",17.2 nM,16.1 nM,18 nM,–,–,–
AAAAAGCUAGGAUAUACAUGAGGAUCACCCAUGUGAGGGCACCGCGGGCGCGGGACCGGUAGAAGGAGCAAAAA [Exc;s3-III] (puzzle: Exclusion 3),–,–,–,23.5 nM,24.9 nM,29.1 nM
AAAAAGUGAGGAUAUACAUAAGGACCCGGGAGGGAAAUAAAACAUGAGGAUCACCCAUGUAGAAGGCACAAAAA [Exclss2-I] (puzzle: Exclusion 2),–,–,–,20.2 nM,22.2 nM,13.5 nM
"AAAACAAAGCUAGGAUAUUGUCCGAUGUAGCGAUAAGAAGGAGCAGAGUACGUCUGGUCCACAUGAGGAUCACCCAUGUACAAA [Inmaon] (Eterna round: R96, puzzle: Exclusion NG 1)",183 nM,79.6 nM,67.5 nM,–,–,–
AAAACAGUGUAGGAUAUGGCUGGGCUGAAAAUGCUAGAAGGACACACAUGAGGAUCACCCAUGUGACUUCGUGC [Atri] (puzzle: Exclusion 6),–,–,–,–,12.5 nM,–
"AAAAGACAAGGAUAUACUUGGAAAAUAAAGCUUGAGGAAGUACUUGAGGAUCACCCAAGUAGAAGGUGUAGGCG [Edtiisre] (Eterna round: R97, puzzle: Exclusion 2)",37.7 nM,–,31.5 nM,–,–,–
"AAAAGCAAGUAAAGAUUCUACAUGAGGAUCACCCAUGUGCUCGUCUUAUAAAGUACUAUCACGAAAGUGAUAGUACA [Sensor 3, v1 - 43] (puzzle: Sensor v3, turn-off variant 1)",–,–,–,19.4 nM,124 nM,17.6 nM
AAAAUGUAAGGAUAUAGCCGGAACCCAGGGUCAAUACCCGGCUAGAAGGUACAUGAGGAUCACCCAUGUAAGAA [Excls4-VI] (puzzle: Exclusion 4),–,–,–,21.6 nM,18.9 nM,16.5 nM
"AAAAUGUGAGGAUAUCACGGAGCUCCGCGUGACGAAGCUCCUGAGAAGGCACAUGAGGAUCACCCAUGUCCUGU [EX4 A.30] (Eterna round: R97, puzzle: Exclusion 4)",296 nM,–,54.4 nM,–,–,–
"AAACCCAGAGGAUAUGCUGACUCCGACAUGAGGAUCACCCAUGUAGCGACUCUUCAUGCAGCAGAAGGUUGAUUUU [Eternabot (L1) Solution 66] (Eterna round: R97, puzzle: Exclusion 5)",235 nM,–,271 nM,–,–,–
"AAACCUGAAGUUAGGAUAUGAAGUAUCACUAUACUUCAGAAGGAACUUGAGGAUCACCCAAGUAGCCGUGAGGC [jl-bmx4.4.66 ViennaUCT mod] (Eterna round: R97, puzzle: Brourd's mod of Exclusion 4)",110 nM,–,23 nM,–,–,–
AAAGAAACAGGAUAUGUAGGCUGCGACAUGAGGAUCACCCAUGUGUCGGUAUACAGUCCUAUAGAAGGGUUAUGAC [Tieder] (puzzle: Exclusion 5),–,–,–,–,13.1 nM,–
"AAAGACCUGGAGGAUAUCAGACACACCAGCGUCUGAGAAGGCCAGACAUGAGGAUCACCCAUGUAGGGUUCUCC [EX6 B.22] (Eterna round: R97, puzzle: Exclusion 6)",104 nM,–,29.4 nM,–,–,–
AAAGAGCGAGGAUAUACAUGAGGAUCACCCAUGUAAAGAUGCAUGGUCUGAACGUCUGGUAGAAGGCGUAUGAA [Diatater] (puzzle: Exclusion 3),–,–,–,–,98.7 nM,–
"AAAGGACGAGGAUAUACAUGAGGAUCACCCAUGUAAGAAGCAUAAUAAAAUAACUUAUGUAGAAGGCGUCCAAA [Mat - Exclusion 3 - Eli mod - D94] (Eterna round: R96, puzzle: Exclusion 3)",–,17 nM,–,–,–,–
"AAAGGGCGUGUGAGGAUAUCGACCCGACUUCCAGUCGAGAAGGCACAUGAGGAUCACCCAUGUGAUGACAGCGA [BmEX4 B.8] (Eterna round: R97, puzzle: Brourd's mod of Exclusion 4)",38.4 nM,–,16.2 nM,–,–,–
AAAGGUGAGUAGGAUAUCCGCGCACGAAUAAAAGGAGAAGGACUUACAUGAGGAUCACCCAUGUAAGGUGGUAA [Ationbi] (puzzle: Exclusion 6),–,–,–,19.4 nM,11.7 nM,15.1 nM
"AAAUAACAAGCAAGAUCCUACAUGAGGAUCACCCAUGUGCUCGUCUUGUAAAGUACUAUCACGAAAGUGAUAGUACA [Sensor 3, v1 - 12] (puzzle: Sensor v3, turn-off variant 1)",–,–,–,23.4 nM,219 nM,23 nM

Sequence,apparent KD of MS2 coat protein (input ligand: FMN 200 uM),apparent KD of MS2 coat protein [1],apparent KD of MS2 coat protein (input ligand: none),apparent KD of MS2 coat protein [2],apparent KD of MS2 coat protein [3],apparent KD of MS2 coat protein [4]
"AAAUAACAAGCGAGAUCCUACAUGAGGAUCACCCAUGUGCUCGUCUUAUUAAGUACUAUCACGAAAGUGAUAGUACA [Mat - Sensor v3 - turn-off var 1 - Eli Mod - D66] (puzzle: Sensor v3, turn-off variant 1)",–,–,–,18.4 nM,239 nM,18.4 nM
"AAAUAAUAGAUAAAAUAAUACAUGAGGAUCACCCAUGUGGGAUGCUGAGGGUGAUACAAGCUUUUUGCUCGUCUUAU (puzzle: Sensor v3, turn-off variant 1)",–,–,–,212 nM,19.7 nM,245 nM
"AAAUAGAAAGGAUAUACAGGCAUCCUUACCAGAGCGAGCUCACAUGAGGAUCACCCAUGUAGAAGGUUCAUAGC [EX2 C.17] (Eterna round: R97, puzzle: Exclusion 2)",34.9 nM,–,31.8 nM,–,–,–
"AAAUAGCAUGAGGAUAUUGGACUGUAUUCAGUACGAGAAGGCAUGACAUGAGGAUCACCCAUGUUUUGUUGGGA [EX6 #6] (Eterna round: R97, puzzle: Exclusion 6)",222 nM,–,67.5 nM,–,–,–
"AAAUAGCGAGGAUAUACUGUAUACGAAAGUAUACGCAUGGCACAUGAGGAUCACCCAUGUAGAAGGCGCUAUAA (Eterna round: R97, puzzle: Exclusion 2)",43.4 nM,–,22.3 nM,–,–,–
"AAAUAGCUUGAGGAUAUUGGAUAGGAUUUAGUGCGAGAAGGCAAGACAUGAGGAUCACCCAUGUUGUGUUGGGA [EX6 #13] (Eterna round: R97, puzzle: Exclusion 6)",48.4 nM,–,36.4 nM,–,–,–
AAAUCCGCUGAGGAUAUUAUGACUGAGAGGUCAUGAGAAGGCGGUACAUGAGGAUCACCCAUGUCUAUGGGCAA [Ex-6 Malc#27] (puzzle: Exclusion 6),–,–,–,377 nM,292 nM,553 nM
"AAAUCGGAGGAGGAUAUUGUACAGGAAACGGUGCGAGAAGGUUUCACAUGAGGAUCACCCAUGUCAAAUAGCGA [EX6 #57] (Eterna round: R97, puzzle: Exclusion 6)",21.3 nM,–,21.2 nM,–,–,–
"AAAUCGGUAGAGGAUAUUGUACAGGAAACGGUGCGAGAAGGUUACACAUGAGGAUCACCCAUGUUAAAUAGCGA [EX6 #54] (Eterna round: R97, puzzle: Exclusion 6)",17.9 nM,–,18.4 nM,–,–,–
"AAAUUCUGAGGAUAUCGAUGUUUGUACAUGAGGAUCACCCAUGUCCUUUUUAUUUUUUCUCGAGAAGGCAGUGUAU [JR_E5_Sub100] (Eterna round: R96, puzzle: Exclusion 5)",48.1 nM,32 nM,40.7 nM,–,–,–
AAAUUCUGAGGAUAUCGAUGUUUGUACAUGAGGAUCACCCAUGUCCUUUUUAUUUUUUCUCGAGAAGGCAGUGUAU [JR_E5_Sub100] (puzzle: Exclusion 5),–,–,–,–,34.2 nM,–
"AAAUUGGUAGAGGAUAUCGUACAGGAAACGAUGCGAGAAGGCUGCACAUGAGGAUCACCCAUGUUUAGUUGCGA [EX6 #42] (Eterna round: R97, puzzle: Exclusion 6)",19.2 nM,–,19.4 nM,–,–,–
"AACAAGCUUUAAAGAUCCCACAUGAGGAUCACCCAUGUGCUCGUCUUAUAACGUACUGUGACGAAAGUCACGGUACG [JL TOV1 3.25] (Eterna round: R97, puzzle: Sensor, turn-off variant 1)",27.7 nM,–,37.4 nM,–,–,–
"AACAGUAGAGGAUAUACAUGAGGAUCACCCAUGUGAUAUUUACGUGGCGUACCACGAAGUAGAAGGCUACUGGA [JL Maslow Revisted mod 14] (Eterna round: R96, puzzle: Exclusion 3)",512 nM,32.5 nM,34.9 nM,–,–,–
"AACAGUCUAGAGGAUAUGCUGGAUGAAUAUCUGGCAGAAGGCUGGACAUGAGGAUCACCCAUGUAAAUACUACC [Omei Ex6 A1c] (Eterna round: R97, puzzle: Exclusion 6)",96.9 nM,–,36.5 nM,–,–,–
"AACCAGCGAGGAUAUGCUUGAGCUUGUUCUGGUUAUAAUCGACUUGAGGAUCACCCAAGUAGAAGGUGCUGACG [EX2 #58] (Eterna round: R97, puzzle: Exclusion 2)",25.6 nM,–,26.9 nM,–,–,–
"AACCAGCUAGGAUAUGCUUGCGCGUGUUCUGGUUAUAAUCGACUUGAGGAUCACCCAAGUAGAAGGAGCUGGCG [EX2 #54] (Eterna round: R97, puzzle: Exclusion 2)",1360 nM,–,445 nM,–,–,–
"AACCUCGUAGCAGGAUAUUAGAGCUCCCGCAAAUGAGAAGGGCUACGAAACACUUGAGGAUCACCCAAGUACCGUGGUCCUCUA [Mutated MS2 EX1.8] (Eterna round: R96, puzzle: Exclusion NG 1)",12.7 nM,17.6 nM,20.7 nM,–,–,–
